Results: patent publication US20190309079A1 (Regeneron, published 2019)
Numbering of substitutions follows the chain as printed. Read-outs that look alike come from different tables or passages of the source. One block for each binder: values may come before it.

Key:
Assay in all cases: cell-based or functional assay
[1] = target: T1, LEPR-A409E (signaling-defective mutant) on HEK293 reporter cells (human, UniProt P48357 22-1165)
T1 sequence: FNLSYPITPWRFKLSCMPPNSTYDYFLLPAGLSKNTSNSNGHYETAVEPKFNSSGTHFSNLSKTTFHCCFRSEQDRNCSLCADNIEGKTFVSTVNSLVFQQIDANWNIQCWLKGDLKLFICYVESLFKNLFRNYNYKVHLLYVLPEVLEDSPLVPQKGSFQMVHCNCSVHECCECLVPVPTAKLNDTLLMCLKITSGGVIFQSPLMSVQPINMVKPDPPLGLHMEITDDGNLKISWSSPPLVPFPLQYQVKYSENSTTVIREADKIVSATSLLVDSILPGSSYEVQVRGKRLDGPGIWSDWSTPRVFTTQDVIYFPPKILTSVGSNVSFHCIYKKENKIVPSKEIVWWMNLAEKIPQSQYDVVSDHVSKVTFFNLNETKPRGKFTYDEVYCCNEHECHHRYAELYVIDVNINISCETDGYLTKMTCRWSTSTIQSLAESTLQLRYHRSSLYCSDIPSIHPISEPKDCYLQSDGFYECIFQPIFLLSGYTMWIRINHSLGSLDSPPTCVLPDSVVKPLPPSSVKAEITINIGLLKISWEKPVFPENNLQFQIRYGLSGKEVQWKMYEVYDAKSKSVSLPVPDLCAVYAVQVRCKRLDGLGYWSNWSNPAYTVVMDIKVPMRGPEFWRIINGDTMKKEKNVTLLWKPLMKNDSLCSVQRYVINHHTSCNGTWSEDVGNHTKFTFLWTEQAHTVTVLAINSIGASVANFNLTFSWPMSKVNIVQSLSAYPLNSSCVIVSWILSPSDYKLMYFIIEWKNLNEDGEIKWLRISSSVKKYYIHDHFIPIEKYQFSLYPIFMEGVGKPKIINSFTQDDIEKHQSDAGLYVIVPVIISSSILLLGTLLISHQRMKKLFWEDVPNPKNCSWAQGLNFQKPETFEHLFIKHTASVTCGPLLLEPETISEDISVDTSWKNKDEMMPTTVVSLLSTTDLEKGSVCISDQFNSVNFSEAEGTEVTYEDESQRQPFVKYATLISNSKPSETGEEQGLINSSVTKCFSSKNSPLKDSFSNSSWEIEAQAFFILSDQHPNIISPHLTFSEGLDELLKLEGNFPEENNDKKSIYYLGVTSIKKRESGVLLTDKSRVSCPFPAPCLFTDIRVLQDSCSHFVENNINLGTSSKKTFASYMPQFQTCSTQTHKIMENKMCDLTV

[2] = target: T2, wild-type LEPR on HEK293 reporter cells (UniProt P48357 22-1165, limits assumed)
T2 sequence (looked up): T1 sequence with E388A

[3] = target: T1, LEPR-A409E (signaling-defective mutant) …; remark: listed apart in the source

EC50 (read off the curve), pSTAT3 Y705/STAT3 densitometry [1]: ~2e-10 M
B1: H4H16650P2 (antibody, V domains shown)
VH: QVQLVESGGGVVQPGKSLRLSCVASGFTFSSDAMYWVRQAPGKGLEWVAVIYYDGNYQYYEDSVKGRFTISRDNSQNTLDLQMNSLRVDDTAVYFCARLNWDYWYLDLWGRGTLVTVSS
VL: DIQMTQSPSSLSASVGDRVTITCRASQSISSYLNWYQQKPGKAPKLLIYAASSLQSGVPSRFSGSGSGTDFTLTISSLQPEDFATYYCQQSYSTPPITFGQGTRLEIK

EC50 (read off the curve), pSTAT3 Y705/STAT3 densitometry [2]: ~3e-10 M
EC50 (read off the curve), pSTAT3 Y705/STAT3 densitometry [3]: ~6e-10 M
B2: H4H16679P2 (antibody, V domains shown)
VH: QVQLVESGGGVVQPGRSLRLSCTASGFTFSSYAMYWVRQAPGKGLEWVSVIYYDGSYKYYADSVKGRFTISRDNSKNTLYLQMDSLRAEDTAVYYCASYNWNYWYFDFWGRGTLVTVSS
VL: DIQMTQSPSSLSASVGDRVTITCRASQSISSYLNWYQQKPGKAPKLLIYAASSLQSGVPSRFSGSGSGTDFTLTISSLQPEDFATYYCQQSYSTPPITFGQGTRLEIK
